Test results taken from article PMC7558026, “Exploring and applying the substrate promiscuity of a C-glycosyltransferase in the chemo-enzymatic synthesis of bioactive C-glycosides” (Nature Communications, 2020).
Where a chain is given by its changes, count along the chain named. Names may count otherwise.

What was measured:
[1] = system: Influenza A/WSN/33 (H1N1); test: microbe, parasite or virus in culture; format: cell-based; details: ribavirin (positive control) at 30 μM, read-out: Inhibitory Rates, anti-influenza A virus activity
[2] = substrate: O=C1C[C@@](O)(c2ccc(O)cc2)Oc2cc(O)cc(O)c21; test: Kinetic parameters of AbCGT variant V183E; format: biochemical, Aloe barbadensis; details: other: V183E, UDP-Glc as donor; pH 7.4; 30.0 °C
Procedure: (§1) Assays were performed in a final volume of 100 μL 50 mM Tris-HCl (pH 7.4) at 30 °C, and contained purified recombinant AbCGT (1.5 μg) and saturating UDP-Glc (5 mM) while varying phloracetophene (11) and phloretin (17) concentrations (5–500 μM), respectively. The reactions terminated by the addition of 200 μL of ice-cold methanol. Subsequently, samples were centrifuged at 15,000 × g for 30 min to collect the supernatant, and aliquots were analyzed by HPLC as described above. All experiments were performed in triplicate. The value of Km was calculated with the method of Lineweaver–Burk plot.
(§2) Site-saturation mutagenesis of AbCGT at residue 183 was performed by PCR using pET28a-AbCGT as a template and the corresponding degenerate primers, which are listed in Supplementary Table 5. PCR products were purified and transformed into Trans1-T1 (DE3) E. coli. The sequences of pET28a-AbCGT mutants were confirmed by sequencing, and transformed into Transetta (DE3) E. coli for heterologous expression following protein purification.

[3] = substrate: O=C1C[C@@](O)(c2ccc(O)cc2)Oc2cc(O)cc(O)c21; test: Kinetic parameters of AbCGT variant V183D; format: biochemical, Aloe barbadensis; details: other: V183D, UDP-Glc as donor; pH 7.4; 30.0 °C
Procedure: as §1, §2

## NC(=O)c1ncn([C@@H]2O[C@H](CO)[C@@H](O)[C@H]2O)n1 [Ribavirin, reference compound]
[1]
  inhibition at 30 µM: 85.6%

B1: AbCGT V183E (Aloe vera; V183E) (protein)
chain: MSNSGRPHVALLPSAGMGHLTPFCRLAALLSSRGGGDLDVSFITAEPTVSLKEYLQIRDLLSSFPSIKSHRFKVPELSPSQFPSSPDPFFQQWESIRRCAHLLPPLLASATALIIDTASASAVLPVAKQLNIPAYILFTSSASMLSLVAHFPSHVISSTSPSAPLMSNILIPGLKHPVPAAWEPPPLHVPGHIFSTLTVDNGRCLPEADGVIINTFDALEPEVLAALNGGRVAHGLPRVFAVGPLVAPPPPQQMEETGGGDYPIAWLDRQRDKSVVYVSFGSRTAMSPEQIRELAAGLERSGCSFLWVIKTKKVDRDEEETDLGALLGEGYVERVKGRGLVVNGWVEQEEILRHRAVGGFVSHCGWNSVTEAAVAGVRVLCWPRMGDQRLNAEVVRRSGVGVWMEEWSWEAEGGVVGGEEIGRRVKEMMEDEGLRDSAERVAEEARVALGVGGTSSKEMEEFISRIMMGS
[2]
  Km: 325.4 ± 19.2 µM
  kcat/Km: 0.0348 M⁻¹ s⁻¹

B2: AbCGT V183D (Aloe vera; V183D) (protein)
chain: B1 chain with E183D
[3]
  Km: 209.3 ± 14.3 µM
  kcat/Km: 0.0283 M⁻¹ s⁻¹
